Test results published in patent US20160083701A1 (UNITED STATES OF AMERICA AS REPRESENTED BY THE DEPARTMENT …, published 2016).
Each block holds one molecule with its values, some of them ahead of it.

Assays:
[1] = target: His-tagged recombinant rat AKAP18δ (rAKAP18δ) (rat) (UniProt Q6JP77); experiment: co-IP with anti-his beads, anti-Flag immunoblot, band ratios; reference is the same reaction without rPKAc
[2] = target: T1, Purified recombinant SERCA2 (rSERCA2, Abnova) (UniProt P16615 1-1042, limits assumed); experiment: co-IP of the Flag-tagged construct with purified rSERCA2 (150 ng), anti-Flag IP, anti-SERCA2 immunoblot
T1 construct: Bought protein; The legend gives 1042 amino acids, while the discussion calls it SERCA2a
From the text: FIG. 11 a-d. rPKAc phosphorylates rhPDE3A and increases its interactions rSERCA2. A. Schemes representing PDE3A1 [NHR1: trans-membrane domain (obligatory membrane insertion domain); NHR2: membrane association domain; CCR: conserved C-terminal catalytic region; P1-4: predicted PKA phosphorylation sites; rhPDE3A and truncated mutants (PDE3A2, PDE3A-A510, PDE3A-RD), and rSERCA2 (1042 amino acids, 3-77 cation transporter N-terminal; 93-341, E1-E2 ATPase; 345-724, haloacid dehydrogenase like hydrolase; 819-991, cation transporter ATPase C-terminus). B. Putative PKA phosphorylation sites of PDE3A designated with asterisks. […] Proteins were immunoprecipitated with anti-Flag antibodies and immunoblotted with anti-SERCA2 (upper panel), or anti-Flag (middle panel). Lower panel: input control (SERCA2). Shown are representative blots from three independent experiments. (RD: regulatory domain; AA: amino acid).

Chain of His-tagged recombinant rat AKAP18δ (rAKAP18δ) (rat) (Q6JP77 whole entry, stated change not applied): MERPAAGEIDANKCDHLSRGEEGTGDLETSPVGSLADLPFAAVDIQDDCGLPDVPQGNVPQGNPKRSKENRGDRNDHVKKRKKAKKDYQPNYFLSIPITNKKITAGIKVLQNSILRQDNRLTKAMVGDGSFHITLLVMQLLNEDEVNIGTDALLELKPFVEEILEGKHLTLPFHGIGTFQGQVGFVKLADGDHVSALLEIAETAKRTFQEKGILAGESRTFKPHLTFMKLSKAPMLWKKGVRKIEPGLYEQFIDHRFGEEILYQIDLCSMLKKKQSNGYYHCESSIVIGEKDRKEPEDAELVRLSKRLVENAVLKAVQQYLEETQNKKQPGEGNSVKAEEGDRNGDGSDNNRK
T1 sequence (P16615 whole entry): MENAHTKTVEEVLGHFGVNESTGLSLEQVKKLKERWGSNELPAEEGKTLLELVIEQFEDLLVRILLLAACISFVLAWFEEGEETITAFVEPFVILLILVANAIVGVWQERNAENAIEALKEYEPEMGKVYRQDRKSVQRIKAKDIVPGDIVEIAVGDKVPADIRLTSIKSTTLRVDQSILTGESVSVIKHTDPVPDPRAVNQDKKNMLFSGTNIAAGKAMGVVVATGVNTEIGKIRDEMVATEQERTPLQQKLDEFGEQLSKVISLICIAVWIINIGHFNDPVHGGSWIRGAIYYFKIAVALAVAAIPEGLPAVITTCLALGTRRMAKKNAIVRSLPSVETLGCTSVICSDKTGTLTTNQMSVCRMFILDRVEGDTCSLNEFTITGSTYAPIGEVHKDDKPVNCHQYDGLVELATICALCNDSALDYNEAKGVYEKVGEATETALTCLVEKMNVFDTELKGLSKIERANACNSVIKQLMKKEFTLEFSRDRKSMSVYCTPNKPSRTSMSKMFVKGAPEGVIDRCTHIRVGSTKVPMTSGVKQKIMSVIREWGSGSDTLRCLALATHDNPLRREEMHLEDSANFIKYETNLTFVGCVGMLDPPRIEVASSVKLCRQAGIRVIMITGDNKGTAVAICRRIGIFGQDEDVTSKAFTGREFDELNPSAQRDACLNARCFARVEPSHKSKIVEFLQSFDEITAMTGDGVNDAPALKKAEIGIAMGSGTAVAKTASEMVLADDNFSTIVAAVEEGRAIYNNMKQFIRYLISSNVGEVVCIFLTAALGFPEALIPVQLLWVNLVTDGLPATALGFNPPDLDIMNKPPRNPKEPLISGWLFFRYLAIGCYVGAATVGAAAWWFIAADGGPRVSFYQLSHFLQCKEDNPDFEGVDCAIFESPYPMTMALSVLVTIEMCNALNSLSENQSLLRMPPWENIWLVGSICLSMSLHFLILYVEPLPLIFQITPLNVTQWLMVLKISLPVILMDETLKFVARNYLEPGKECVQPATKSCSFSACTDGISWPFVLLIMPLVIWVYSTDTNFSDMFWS

fold increase in binding (with rPKAc against control without rPKAc) [1]: 9 fold
Molecule: Flag-tagged recombinant human PDE3A1 (rhPDE3A1), phosphorylated in vitro by rPKAc (from UniProt Q14432 146-1141) (enzyme)

binding result [2]: no binding
B1: rhPDE3A-A510 (recombinant form lacking the first 510 aa of the PDE3A open reading frame) (enzyme)
chain: SRPGALAKISPLSSPCSSPLQGTPASSLVSKISAVQFPESADTTAKQSLGSHRALTYTQSAPDLSPQILTPPVICSSCGRPYSQGNPADEPLERSGVATRTPSRTDDTAQVTSDYETNNNSDSSDIVQNEDETECLREPLRKASACSTYAPETMMFLDKPILAPEPLVMDNLDSIMEQLNTWNFPIFDLVENIGRKCGRILSQVSYRLFEDMGLFEAFKIPIREFMNYFHALEIGYRDIPYHNRIHATDVLHAVWYLTTQPIPGLSTVINDHGSTSDSDSDSGFTHGHMGYVFSKTYNVTDDKYGCLSGNIPALELMALYVAAAMHDYDHPGRTNAFLVATSAPQAVLYNDRSVLENHHAAAAWNLFMSRPEYNFLINLDHVEFKHFRFLVIEAILATDLKKHFDFVAKFNGKVNDDVGIDWTNENDRLLVCQMCIKLADINGPAKCKELHLQWTDGIVNEFYEQGDEEASLGLPISPFMDRSAPQLANLQESFISHIVGPLCNSYDSAGLMPGKWVEDSDESGDTDDPEEEEEEAPAPNEEETCENNESPKKKTFKRRKIYCQITQHLLQNHKMWKKVIEEEQRLAGIENQSLDQTPQSHSSEQIQAIKEEEEEKGKPRGEEIPTQKPDQ
notes: The range 511-1141 follows from the statement that the first 510 aa of the open reading frame were deleted; Incubated with or without rPKAc
